The source of these data is patent publication US20090155285A1 (Eli Lilly, published 2009).

For assay [1], the target named is T1, mature human TGF-β1 (human, UniProt P01137 279-390).
T1 construct: Bought protein (R&D Systems, Cat # 240-B/CF); also called TGF Beta 1; TGF-b1
Nature of the assay: KinExA 3000, solution phase, antigen-coupled beads. As to the method:
(§1) A KinExA 3000 instrument (Sapidyne Inst. Inc.) measures binding kinetics. Briefly, antigen is covalently-coupled to azlactone beads and the binding of an invention free Fab to the beads is detected on the instrument. […] After incubation, free Fab in each equilibrated sample is determined on KinExA 3000 per manufacturer instructions. Kd values are determined using KinExA 3000 software. To measure kₒₙ, individual Fabs at 2 nM are mixed with 0-240 nM of antigen using the injection method according to manufacturer's instructions, and the unbound Fab is detected. The resulting data is used to calculate the kₒₙ with KinExA 3000 software. The koff is calculated using the formula K_{d=k}off/kₒₙ. Affinity data obtained under KinExA© conditions for Fab embodiments binding TGF Beta 1 are shown below in Table 1.
(Kinetic exclusion samples the free partner from a solution-phase mixture.)

Assay [2] concerns the target T1, mature human TGF-β1. The experiment in a line: KinExA 3000, equilibrium in solution. The method, then:
as §1

In assay [3] the target is T1, mature human TGF-β1. The experiment in a line: KinExA 3000, calculated from Kd and kon. As to the method: as §1

T1 sequence (P01137 279-390 limits assumed): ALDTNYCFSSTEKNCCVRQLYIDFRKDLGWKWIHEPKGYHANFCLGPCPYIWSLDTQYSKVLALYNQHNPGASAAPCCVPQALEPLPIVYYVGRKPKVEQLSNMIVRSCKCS

B1: Fab 12.7 (Fab, V domains shown)
VH: QVQLVQSGAEVKKPGASVKVSCKASGYTFTSEWMNWVRQAPGQGLEWMGQIFPALGSTNYNEMYEGRVTMTTDTSTSTAYMELRSLRSDDTAVYYCARGIGNYALDAMDYWGQGTLVTVSS
VL: DIQMTQSPSSLSASVGDRVTITCRASESVDFYGNSFMHWYQQKPGKAPKLLIYLASNLESGVPSRFSGSGSGTDFTLTISSLQPEDFATYYCQQNIEDPLTFGGGTKVEIKR
notes: The mAb was made by linking the Fab to an IgG4 Fc region, so the mAb's chains are named; The heavy chain entry also holds the Fc, which is not in the Fab
Consider B1, for which the kon – broadly, the rate constant with which the complex forms – in assay [1] was 3.7e+06 M⁻¹ s⁻¹. In addition, in assay [2], the affinity, expressed as Kd, was 0.09 pM. For the same molecule, in assay [3], the koff (in general, the rate constant with which the complex falls apart) was 3.4e-07 s⁻¹.

B2: Fab 12.8 (Fab, V domains shown)
VH: QVQLVQSGAEVKKPGASVKVSCKASGYTFTSYWMNWVRQAPGQGLEWMGQIFPALGSTNYNEMFEGRVTMTTDTSTSTAYMELRSLRSDDTAVYYCARGIGNYALDAMDYWGQGTLVTVSS
VL: DIQMTQSPSSLSASVGDRVTITCRASESVDWYGNSFMHWYQQKPGKAPKLLIYYASNLESGVPSRFSGSGSGTDFTLTISSLQPEDFATYYCQQNAEDPLTFGGGTKVEIKR
notes: as for B1
As to B2, in assay [1], the kon was 2.6e+07 M⁻¹ s⁻¹. In addition, the Kd (in general, a measure of binding affinity in units of concentration) in assay [2] was 0.22 pM. For the same molecule, the koff in assay [3] is 5.5e-06 s⁻¹.
